± gives the standard deviation of the averaged measurements.
Assay: total protein half-life in vivo (active degradation + dilution); higher = more stable protein
[1] = E. coli NCM3722 delta-clpP delta-lon delta-hslV, growth: N-lim chemostat, doubling time 6 h
[2] = E. coli NCM3722 delta-clpP, growth: N-lim chemostat, doubling time 6 h
[3] = E. coli NCM3722 delta-hslV, growth: N-lim chemostat, doubling time 6 h
[4] = E. coli NCM3722 delta-lon, growth: N-lim chemostat, doubling time 6 h
[5] = E. coli NCM3722 delta-smpB, growth: N-lim chemostat, doubling time 6 h
[6] = wild type E. coli NCM3722, growth: C-lim chemostat, doubling time 3 h
[7] = wild type E. coli NCM3722, growth: C-lim chemostat, doubling time 6 h
[8] = wild type E. coli NCM3722, growth: C-lim chemostat, doubling time 12 h
[9] = wild type E. coli NCM3722, growth: N-lim chemostat, doubling time 6 h
[10] = wild type E. coli NCM3722, growth: N-lim chemostat, doubling time 12 h
[11] = wild type E. coli NCM3722, growth: P-lim chemostat, doubling time 6 h
[12] = wild type E. coli NCM3722, growth: P-lim chemostat, doubling time 12 h

| Sequence | total protein half-life in vivo [1] | total protein half-life in vivo [2] | total protein half-life in vivo [3] | total protein half-life in vivo [4] | total protein half-life in vivo [5] | total protein half-life in vivo [6] | total protein half-life in vivo [7] | total protein half-life in vivo [8] | total protein half-life in vivo [9] | total protein half-life in vivo [10] | total protein half-life in vivo [11] | total protein half-life in vivo [12] |
| --- | --- | --- | --- | --- | --- | --- | --- | --- | --- | --- | --- | --- |
| MKMNKSLIVLCLSAGLLASAPGISLADVNYVPQNTSDAPAIPSAALQQLTWTPVDQSKTQTTQLATGGQQLNVPGISGPVAAYSVPANIGELTLTLTSEVNKQTSVFAPNVLILDQNMTPSAFFPSSYFTYQEPGVMSADRLEGVMRLTPALGQQKLYVLVFTTEKDLQQTTQLLDPAKAYAKGVGNSIPDIPDPVARHTTDGLLKLKVKTNSSSSVLVGPLFGSSAPAPVTVGNTAAPAVAAPAPAPVKKSEPMLNDTESYFNTAIKNAVAKGDVDKALKLLDEAERLGSTSARSTFISSVKGKG | 5.04 ± 2.7 h | 3.08 h | 6.28 h | 3.75 ± 0.98 h | 2.82 ± 0.1 h | 2.84 ± 0.031 h | 4.94 ± 0.13 h | 10.5 ± 1.6 h | 3.93 ± 0.67 h | 7.51 ± 0.25 h | 4.18 h | 6.149 ± 0.0079 h |
| MRYSKLTMLIPCALLLSACTTVTPAYKDNGTRSGPCVEGGPDNVAQQFYDYRILHRSNDITALRPYLSDKLATLLSDASRDNNHRELLTNDPFSSRTTLPDSAHVASASTIPNRDARNIPLRVDLKQGDQGWQDEVLMIQEGQCWVIDDVRYLGGSVHATAGTLRQSIENR |  | 5.61 ± 1.2 h | 6.1159 ± 0.0003 h |  | 6.06 ± 0.54 h | 2.89 ± 0.099 h | 6.3 ± 0.064 h | 12.9 ± 1 h | 6.03 ± 0.21 h | 12.6 ± 1.1 h | 6.22 ± 0.44 h | 13.7 ± 0.35 h |
| MLKTIQDKARHRTRPLWAWLKLLWQRIDEDNMTTLAGNLAYVSLLSLVPLVAVVFALFAAFPMFSDVSIQLRHFIFANFLPATGDVIQRYIEQFVANSNKMTAVGACGLIVTALLLMYSIDSALNTIWRSKRARPKIYSFAVYWMILTLGPLLAGASLAISSYLLSLRWASDLNTVIDNVLRIFPLLLSWISFWLLYSIVPTIRVPNRDAIVGAFVAALLFEAGKKGFALYITMFPSYQLIYGVLAVIPILFVWVYWTWCIVLLGAEITVTLGEYRKLKQAAEQEEDDEP [P0A8K8] |  |  |  |  | 4.46 h | > 4 h |  |  | 7.67 h |  |  | > 16 h |
| MTGMTNVTKLASEPSGQEFLVFTLGDEEYGIDILKVQEIRGYDQVTRIANTPAFIKGVTNLRGVIVPIVDLRIKFSQVDVDYNDNTVVIVLNLGQRVVGIVVDGVSDVLSLTAEQIRPAPEFAVTLSTEYLTGLGALGDRMLILVNIEKLLNSEEMALLDSAASEVA [P0A964] | 5.19 ± 0.61 h | 4.56 ± 0.37 h | 5.25 h | 5.4 ± 0.52 h | > 8 h | 1.741 ± 0.013 h | 1.86 ± 0.086 h | 3.67 ± 1.6 h | 1.74 h | 2.23 h | 0.859 h | 9.75 h |
| MKKIALAGLAGMLLVSASVNAMSISGQAGKEYTNIGVGFGTETTGLALSGNWTHNDDDGDVAGVGLGLNLPLGPLMATVGGKGVYTNPNYGDEGYAAAVGGGLQWKIGNSFRLFGEYYYSPDSLSSGIQSYEEANAGARYTIMRPVSIEAGYRYLNLSGKDGNRDNAVADGPYVGVNASF |  | > 8 h | > 8 h | 6.46 ± 1.8 h | 5.13 h | 2.53 ± 0.17 h |  |  | 4.53 ± 0.26 h |  | 4.72 h | 13 h |
| MAISIKGVNTGVIRKSNNFIALALKIKEPRNKESLFFMSVMELRDLLIALESRLHQKHKLDAAAHLQYEQARDKVIKKMAENIPEILVDELKNADINRRVNTLELTDNQGENLTFVLTLHDGSKCELVVNELQIEMLARAIIHAINNAEMRELALRITSLLDFLPLYDVDCQDNGNLEYDTYSQPEWKHNLFDHYLAVLYRFKDESGKEQFSGAVVKTREATPGKEIEAITRRMLDFSPRLKKLAGVPCQVYVRTVAANNAQPLTQDQCLRALHHLRVQSTSKTAPQAK | 5.19 ± 0.073 h |  |  |  | 2.7 ± 0.24 h | 2.52 ± 0.14 h | 4.83 ± 1.6 h |  |  |  |  |  |
| MNINRDKIVQLVDTDTIENLTSALSQRLIADQLRLTTAESCTGGKLASALCAAEDTPKFYGAGFVTFTDQAKMKILSVSQQSLERYSAVSEKVAAEMATGAIERADADVSIAITGYGGPEGGEDGTPAGTVWFAWHIKGQNYTAVMHFAGDCETVLALAVRFALAQLLQLLL | 4.97 ± 0.3 h | 4.57 ± 0.048 h | 4.76 ± 0.46 h | 5.18 ± 0.69 h | 4.38 ± 0.19 h | 3.14 ± 0.69 h | 6.15 ± 0.4 h | 9.68 h | 4.8 ± 0.062 h | 11.1 ± 3.5 h | 5.68 ± 0.57 h | 12.6 ± 0.67 h |

Reference: the supplement of paper PMC11246515
